Assay results: patent US20210343368A1, “Method for Engineering Synthetic Cis-Regulatory DNA” (Max-Delbrück-Centrum für Molekulare Medizin in der …, priority 2018, published 2021)

Legend:
[1] = tested on: A549 cells; assay: IncuCyte longitudinal MGT #1 fluorescence; assay type: cell-based, human; settings: GSK126 together with TGFB signaling
Protocol: IncuCyte: IncuCyte automated longitudinal imaging was performed in 96 wells black walls plates (Greiner). 300,000 cells per plate were seeded to reach optimal confluence at the end of the experiment. GSK126 was aliquoted using a D300e, whereas TGFB1+2 were manually aliquoted to each well. Both were refreshed every second day. The last timepoint was independently verified using a plate reader (BMC Clariostar).
Ezh2 inhibition can support Kras-driven EMT in several mouse and human lung cancer cells^41. In this setting, we tested the use of sLCRs in reflecting cellular and molecular responses to biological and chemical stimuli.

[2] = tested on: A549-MGT #1low cells; assay: Cytokine screening, microplate reader MGT #1 fluorescence; assay type: cell-based, human; settings: cytokine combined with GSK126
Protocol: Phenotypic screening: Tumor cells were propagated as described above until the screening. Then we seeded 15′000/50 μl/well in 384 well plates (Corning), in Gibco FluoroBrite DMEM medium supplemented with the appropriate growth factors. Cells were dispensed as 50 μl suspension into each well using the SPARK20M Injector system (50 μl injection volume; 100 μl/s injection speed). For non-adherent cells (e.g. GICs), cells were further centrifuge at 1500 rpm for 1 h30 min at 37° C. Bottom reading fluorescence was scanned using a SPARM 20M TECAN plate reader at 37° C. in a 5% CO2-95% air (3% for GICs) in a humidified cassette, with the following settings for mVenus: Monochromator, Ex 505 nm±20 nm, Em 535 nm±7.5 nm, manual gain:198, flashes: 35, Integration time:40 μs. In independent replicas, cell viability was measured with 0.02% AlamarBlue solution in FluoroBrite medium with the following settings: Fluorescence Top reading. Monochromator, Ex 565 nm±10 nm, Em 592 nm±10 nm, manual gain: 88, flashes: 30, Integration time:40 μs.
DMSO-soluble compounds such as GSK126, were robotically aliquoted using a D300e, whereas cytokines were robotically aliquoted to each well using an Andrew pipetting robot (AndrewAlliance), using the following concentrations:
To exploit Ezh2 inhibition and MGT #1 as a framework to clarify the signaling basis of EMT in NSCLC cells, we next performed a cytokine screening in GSK126- and vehicle-treated A549-MGT #1^low cells.

[3] = tested on: A549 cells; assay: FACS profile of MGT #1 expression and cell morphology; assay type: cell-based, human
Protocol: FACS analysis: Analysis was performed with FlowJo_V10.

[4] = tested on: MCF7 cells; assay: FACS of MGT #1 expression in breast cancer cells; assay type: cell-based
Protocol: (§1) The MCF7, MDA-231, A549 and H1944, cell lines (kindly provided by the Rene Bernards lab, NKI) were cultured in RPMI medium. All cell lines were supplemented with 10% FBS, and 5% penicillin and streptomycin at 37° C. in a 5% CO2-95% air incubator.
(§2) Tumor subtypes are genetically engraved in breast cancer cells^40. […] To confirm that MGT #1 expression reflects that actual breast cancer subtype identity, we FACS sorted and sub-cloned the top MCF7-MGT #1 and the mid MDA-231-MGT #1 expressing cells. Nevertheless, further propagation of the FACS-sorted populations reestablished pre-sorting homeostasis, with MCF7 expressing lower levels of MGT #1 than MDA-231.

[5] = tested on: MDA-231 cells; assay: FACS of MGT #1 expression in breast cancer cells; assay type: cell-based; settings: short-term treatment
Protocol: as §1, §2

[6] = tested on: MES-hGICs-MGT #1dim xenografts; assay: Orthotopic glioma xenograft, genetic tracing of MGT #1; assay type: in vivo, NSG mice
Protocol: Tissue dissection and Cell surface staining: Brain tumor dissection was previously described in detail^77. Briefly, the tissue was dissected with a scalpel, digested in Accutase/DNasel (947 μl Accutase, 50 μl DNase I Buffer, 3 μl DNase I) at 37° C. until needed. Filtered through a 120 μm cell strainer first and a 40 μm cell strainer before RBC lysis (NH4Cl, 155 mM; KHCO3, 10 mM; EDTA, pH 7.4, 0.1 mM). After washing in cold PBS, viability and cell count were assessed automatically with 0.4% Trypan Blue staining using a TECAN SPARK20M.
When surface markers were assessed, typically, 200.000 cells/antibody were used in 15 ml Falcons. Staining volume was 50 μl in RHB-A medium with primary antibody (e.g. CD133-APC; Miltenyi), on ice, in the dark, for 30′. […] Depending on whether cells were analyzed or sorted, data acquisition was performed on the BD LSRFortessa or cells were sorted using the BD Aria II or a Astrios Moflo. The appropriate laser-filter combinations were chosen depending on the fluorophores being analyzed. Typically, to remove dead cells, events were first gated on the basis of shape and granularity (FSC-SSC), and we used as viability dyes either AnnexinV or LIVE/DEAD Fixable Aqua Dead Cell Stain Kit (depending on the fluorophores being analyzed). […]
We intracranially transplanted MES-hGICs-MGT #1^dim cells into NSG mice and longitudinally monitored tumor formation. […]

[7] = tested on: MES-hGICs and PN-hGICs; assay: FACS of basal sLCR expression in hGICs; assay type: cell-based, human; settings: growth-factor defined conditions in vitro
Protocol: FACS sorting: Transduced hGICs were harvested into single cell suspensions and resuspended into cold RHB-A complete and filtered into FACS tubes. Sorting was conducted using BD FACSAria III or Fusion. The appropriate laser-filter combinations were chosen depending on the fluorophores being sorted for. Typically, to remove dead cells, events were first gated on the basis of shape and granularity (FSC-A vs. SSC-A) and doublets were excluded (FSC-A vs. FSC-H). Positive gates were established on PGK-driven and constitutively expressed H2B-CFP as sorting reporter, to sort for populations with low to medium intensity of sLCR-dependent fluorophore expression.
Next, we transduced Proneural (PNGT #1-2) and Mesenchymal (MGT #1-2) sLCRs lentiviral particles into spontaneously immortalized human neural progenitor cells that acquired high copy number of PDGFRA, c-Myc and CDK4. To recapitulate the common PN and MES GBM genetic backgrounds, we further engineered hGICs to be depleted of PTEN and either bear IDH1^R132 and TP53^R273H point mutations or be further depleted of TP53 and NF1, thereby generating PN-hGICs and MES-hGICs, respectively. These cells show DNA methylation profiles similar to GBM patients and acquire subtype-specific gene-expression in vivo and therefore represent two distinct GBM subtypes.

[8] = tested on: T98G cell line; assay: sLCR-mCherry reporter expression and reprogramming in a glioma cell line; assay type: cell-based; settings: transient over-expression of SALL3, SOX2 and POU3F2
Protocol: The T98G and U87MG (kindly provided by the van Tellingen lab, NKI) were propagated in EMEM medium. For the experiments in FIG. 13a, T98G were switched to RHB-A supplemented with EGF (20 ng ml-1), bFGF (20 ng ml-1), heparin (1 μg ml-1) and 5% penicillin and streptomycin and propagated first on standard tissue culture-treated plastic, then in ultra-low binding plastic (CORNING).
The Proneural GBM is thought to represent the common GBM ancestor subtype and also to reflect an oligodendrocytic cell-of-origin^26′^37. […] To test whether a PN sLCR would mirror the Proneural state, we decided to induce reprogramming of a FBS-driven conventional cell line into a PN-GICs using the master TFs underlying the PN identity^38. To this end, we transduced either MGT #1 or PNGT #2 into the T98G cell line, which is characterized by TP53 mutations (https://portals.broadinstitute.org/ccle), which are more likely to be associated with a PN phenotype^16. […] Of note, these set of experiments were conducted with a mCherry fluorescent protein carrying a nuclear localization signaling, thereby excluding that the fluorescent protein intensity (mCherry is brighter than mVenus), localization and stability (mVenus is transmembrane and stabilized) play a major role in the observed phenotypic transitions.

## CC[C@H](C)n1cc(C)c2c(C(=O)NCc3c(C)cc(C)[nH]c3=O)cc(-c3ccc(N4CCNCC4)nc3)cc21 [GSK126]
[1]
  MGT #1 fluorescence, longitudinal measurement: cooperatively induced
[2]
  MGT #1 expression, fluorescence output: modest additive effect
[3]; combination of TGFB signaling and GSK126
  MGT #1 activation by flow cytometry: synergistically induce MGT #1 activation
[3]; single treatment
  cell morphology change: did not induce a cellular morphology changes
[3]; single treatment, early time point
  MGT #1 expression by flow cytometry: induces molecular transitions to a similar extent

B1: TGFB2: EMT inducer (protein, UniProt P61812 303-414, looked up)
Transforming growth factor …: ALDAAYCFRNVQDNCCLRPLYIDFKRDLGWKWIHEPKGYNANFCAGACPYLWSSDTQHSRVLSLYNTINPEASASPCCVSQDLEPLTILYYIGKTPKIEQLSNMIVKSCKCS
[4]; short-term treatment
  change of basal MGT #1 fluorescence: did not strongly modify the basal MGT #1 fluorescence
[5]
  change of basal MGT #1 fluorescence: did not strongly modify the basal MGT #1 fluorescence

B2: MGT #1: subtype-specific sLCR for mesenchymal glioblastoma (MES-GBM) (nucleic acid)
chain: ATATTTATTTTTAGGACCAGAAAGTTAAAGTGAATTGGATTTGATCCATTTTCTGAAAGGCTGGCAAGAATTCTTGACATTGCACAGGAATTTCCATGTCAGCATGTTCTCACATGTATGATCTAATTTAGAGATTATTTTGGGGGGCGGGGGTTGAGGAAATGGCATGACTCAGAGTTTAAAAGCCCCAAATCTTAGCTGTGCCTGTGTAGCTTTACCACATAACCCATTGATAACTTAGTTGTGCAACCATCACCACCATCTGTTTTCAGAACTCTTTTCATTTTGCGAAACTGAAACCCGTTAAGCACTGATTTCCCACTCTCCCTCCTCCCAGCCCATAGCAAACCACCATCCCACCAGCACTTTCATTTCGCAAATGGCAAAACTGAAGCCGATATTGTGGTTGTGACTTATCCCAAAGTAATATACACATAAACCTCTATGGATGAGGAAAAAGACAGAGGGAAACTAAAAATTCAAAAGAACAAATTTGACTCACAGATTTGCTGACTCATAGTTGTGACACTTCCTGGCTCAGGAAGTTGAATTTCATTAAGCCTTTGTGGTTTGGGGCTCTGCTGTGCTTTGACAGCTCTGATCTCCTCCCTTCCGGCTGGGCTGTCTGGGGCGCTCTAAAATGAGTGTTGATTTAATGCACTGCCTTCGCACCCGTGCTGGTGCGTCCCGGGGACAGGGGTGGCTGTGCGGTGCCGCGGCGGCCGGCGGGGCTCCTTCCCCAGCAGGGGTGGGGACGCTGAGTCACGGATCTGTCACCGCTTTGCACCTCTCCGAGCCCTCGGGGGCCAAAGCAAAAGCGAAAGCGA
modifications: sLCR
[6]; intracranial transplant, n=10, humane end point
  distribution of MGT #1 expressing cells in the tumor (immunohistochemical staining): well confined within the invasive front
[6]; xenograft-derived tumor cells
  endogenous mVenus fluorescence by flow cytometry, in vivo vs in vitro: vast majority of the tumor cells switched to a MGT #1^low or dark state
[7]
  basal sLCR expression: higher basal expression in MES-hGICs compared to PN-hGICs
[4]; after lentiviral transduction
  basal MGT #1 expression: lower MGT #1 expression compared to MDA-231 cells
[8]
  sLCR reporter expression upon master TFs: neutral to MGT #1 expression
